{"source": "patent US20150351390A1", "about": "“COMPOSITIONS AND METHODS FOR AUXIN-ANALOG CONJUGATION” (PIONEER HI-BRED INTERNATIONAL, INC., priority 2012, published 2015)", "molecules": {"B1": {"name": "PtGH3-3: GH3 protein, accession EEE85053 (protein, listed as Populus trichocarpa)", "chain": "MAVDNALSSPLGPPACEKDAKALQFIEEMTRKTDSVQEDVLAKILIQNAEVEYLKRFNLDGATDRETFKSKLPTIRYEDLQPEIQRIANGDRSSILSTHPISEFLTSSGTSAGERKLMPTIKQELDRRQLLYSLLMPVMNLYVPGLDKGKGLYFLFVKSETRTPGGLLARPVLTSYYKSDHFKTRPYDPYNVYTSPNEAILCADSFQSMYTQMLCGLLEREQVLRVGAVFASGLLRAIRFLQLHWRELADDIESGMLNKEITDPSVKDCMVKILKPNPKLAEFVRMECSKENWEGIITRIWPNTKYLDVIVTGAMAQYIPTLDYYSGGLPLACTMYASSECYFGLNLNPMCKPSEVCYTIMPNMAYFEFLPHDPNGFTHDSTPKLVDLADVELGKEYELVITTYAGLYRYQVGDILRVTGFHNSAPQFHFVRRKNVLLSIDSDKTDEAELQKAVENASQLLREFNTSVVEYTSYADTKTIPGHYVIYWELLVKDLANSPSDEVLNQCCLAMEECLNSVYRQGRVADYSIGPLEIRVVKNGTFEELMDYAISRGASINQYKVPRCVNFTPIMELLDSRVVSKHFSPALPYWTPERRR"}, "B2": {"name": "PtGH3-2: GH3 protein, accession EEE87842 (protein, listed as Populus trichocarpa)", "chain": "MAVDNALSSPLGPPACEKDAKALQFLEEMTRNADSVQEDVLAKILTQNSEVEYLKRFNLDGAIDRETFKSKIPMIRYEDLQPEIQRIANGDRSSILSAHPISEFLTSSGTSAGERKLMPTIKQELDRRQLLYSLLMPVMNLYVPGLDKGKGLYFLFVKSETRTPGGLLARPVLTSYYKSDHFKTRPYDPYNVYTSPNEAILCADSFQSMYTQMLCGLLEREQVLRVGAVFASGLLRAIRFLQLHWRELSDDIESGMLNKKITDPTVKDCMVNILKPNPKLAEFVRMECGKENWEGIITRIWPNTKYLDVIVTGAMAQYIPTLDYYSGGLPKACTMYASSECYFGLNLNPMCKPSEVCYTIMPNMAYFEFLPHEPAGISQDSTPKLVDLADVELGKEYELVITTYAGLYRYRVGDILRVTGFHNSAPQFHFVRRKNVLLSIDSDKTDEAELQTAVENASQLLREFNTSVVEYTSHADTKTIPGHYVIYWELLVKDSANSPGDEVLNQCCLAMEESLNSVYRQGRVADNSIGPLEIRVVKNGTFEELMDYAISRGASINQYKVPRCVNFTPIMELLDSRVVSKHFSPALPRWAPERRR"}, "B3": {"name": "PtGH3-4: GH3 protein, accession EEE95321 (protein, listed as Populus trichocarpa)", "chain": "MPEEAPMKNLVCEKSRKALQFIEDVTRNADEVQRKVLAEILSRNANVEYLQRYGLNGNKADREAFKKVMPVVSYEDLKPDIDRIANGDTSQIICSQPISEFLTSSGTSAGERKLMPTIEEELGRRSLLYSLLMPVMNQFVPGLDRGKGMYFLFIKSETKTPGGLLARPVLTSYYKSSYFRDRPYDPYTNYTSPNETILCQDSYQSMYSQLLCGLYQNYDVLRVGAVFASGFIRAIKFLEKHWILLCNDIRNGTIDPKISDPSVREAVLKILKPNQKLADFIEAECTRESWKGIITRLWPNTKYIDVIVTGTMSQYIPTLDYYCDGLPLVCTMYASSECYFGLNLNPLSKPSEVSYTLIPTMAYFEFLPVNRKNGLINSITAPTSLDQKKDQELVDLVDVKLGEEYELVVTTYAGLYRYRVGDILRVAGFKNKAPQFNFVCRKNVVLSIDSDKTDEVELQNAVQNAANHLLPFGASLTEYTSYADTSKIPGHYVLFWEICLSGTTPIPPSVFEDCCLAIEESLNSVYRQGRVSDKSIGPLEIRITERGAFDKLMDFALSQGASINQYKAPRCVKYAPIIELLNSRVVSNYISPKCPKWVPGHKQWCTPN"}, "B4": {"name": "PtGH3-6: GH3 protein, accession EEE95183 (protein, listed as Populus trichocarpa)", "chain": "MPEAPKNTLKTSDYNLAEKNKISLQFIEDVTSNADEVQKKVLEEILSRNAHVEYLQRHGLNGQTNRETFKKAVPVITYEDIQPDINRIANGDTSQILCSKPISEFLTSSGTSGGERKLMPTIEEELGRRSLLYSLLMPVMTQFVPGLEKGKGMYFLFIKSEAKTPGGLVARPVLTSYYKSTHFKDRPYDPYTNYTSPNETILCPDSYQSMYSQMLCGLCQHKEVLRVGAVFASGFIRAIRFLEKHWKLLANDIRTGIIDPQITDPSVREAVMKILKSDPKLADFIEAECSKESWQGIITRLWPNTKYVDVIVTGTMSQYIPTLDYYSNGLPLVCTMYASSECYFGVNLNPICKPSEVSYTLIPTMAYFEFLPVHRNNGVINSVSMPKSLNEKEQQELVDLVDVKLDQEYELVVTTYAGLYRYRVGDVLRVVGFKNKAPRFSFICRKNVVLSIDSDKTDEVELQSAVKNAVNHLIPFDATLAEYTSYADTTTIPGHYVLFWELSLNGSTPIPPSVFEDCCLTIEESLNSVYRQGRASDKSIGPLEIKIVEPGTFDKLMDYAISLGASINQYKTPRCVKFAPIVELLNSRVVTCYFSPKCPKWAPGHKQWSKN"}, "B5": {"name": "RcGH3-3: GH3 protein, accession XP_002524947 (protein, listed as Ricinus communis)", "chain": "MAVDSGLSSPLGPPACEKDAKALQFIEEMTRNIDSVQEKVLAEILSRNAETEYLERFQLNGATDRDAFKSKVPVVTYEDLQPEIQRIANGDRSNIFSSHPISEFLTSSGTSAGERKLMPTIHEELDRRTLLYSLLMPVMNLYVPGLDKGKGLYFLFVKAETKTPGGLVARPVLTSYYKSEHFKNRPFDPYNVYTSPNETILCPDSFQSMYSQMLCGLIMREEVLRVGAVFASGLLRAIRFLQINCKHLAEDISTGTLNPKISDPSIRECMAKILKPNPELAEFITKECSEENWEGIITRIWPNTKYLDVIVTGAMAQYIPTLEYYSNGLPMACTMYASSECYFGVNLNPMVKPSDVSYTIMPNMAYFEFLPHESSSSALSRDSPPRLVDLADVEVGKEYELVITTYAGLNRYRVGDILRVTGFHNAAPQFRFIRRKNVLLSIDSDKTDESELQKAIENASLLLREFNTSVVEYTSYGDTKTIPGHYVIYWELLIKDPSNSPTEQVLNQCCLAMEESLNSVYRQGRVADSSIGPLEIRVVKNGTFEELMDYAISRGASINQYKVPRCVSFTPIMELLDSRVVSKHFSPSLPQWTPERRR"}, "B6": {"name": "PtGH3-5: GH3 protein, accession EEE97566 (protein, listed as Populus trichocarpa)", "chain": "MPEAPKNTLKPSDYNLAEKNKKSLQFIEDVTSNADEAQKKVLEEILSRNAHVEYLQRHGLNGQTNRETFKKVMPVINYEDIQPDINRIANGDASPILCSKPISEFLTSSGTSGGERKLMPTIVEELGRRSLLYSLLMPVMSQFVPDLEKGKGMYFLFIKSEAKTPGGLVARPVLTSYYKSTHFKDRPYDPYTNYTSPNETILCPDSYQSMYSQMLCGLCQHKEVLRVGAVFASGFIRAIRFLEKYWKFLANDIRTGIIDPQITDPSIREAVMKILKPDAKLADFIEAECSKESWQGIITRLWPNTKYVDVIVTGTMSQYIPTLDYYSNGLPLVCTMYASSECYFGVNLNPICKPSEVSYTLIPTMAYFEFLPVNRNNGGINSVSRPKSLKEKEQQELVDLVDVKLDQEYELVVTTYAGLYRYRVGDVLRVVGFKNKAPQFSFICRKNVVLSIDSDKTDEVELQSAVKNAVNHLIPFDATLAEYTSYADTTTIPGHYVLFWELSLSGSTPIPPSVFEDCCLTIEESLNSVYRQGRVSDKSIGPLEIKIVEPGTFDKLMDYAISLGASINQYKTPRCVKFAPIVELLNSRAVSRYFSPKCPKWVPGHKQWNKN"}, "B7": {"name": "PtGH3-8: GH3 protein, accession EEE78719 (protein, listed as Populus trichocarpa)", "chain": "MLPIFDPNDNEAGLKLLEDLTNNACQIQRQVLEYILTTNLHTGYLKSFLNGDSSKENFKNKVPIVNYEDIKPCIERIANGEPSSIISAQPITELLTSSGTSGGQPKMMPSTAEELERKTFFYNLLMPIMNKYVDGLDQGKGMYLLFTKPEISTPSGLMARPVLTSYYKSSNFRNRAFNRYNVYTSPDETILCPDSKQSMYCQLLCGLVQREEVLRVGAVFASAFLRAIKFLEEYQKELCSNIRTGRLSDWITDPNCRNAVSSFLSKPNSELADLIEVECSGKSCEGIIKKLWPRTKYIEVIVTGSMAQYIPTLEFYSGGLPLVSTMYGSSECYLGINFKPLSNPSDVSYTLIPNMAYFEFLPVDKDNKKVIQAEKDVEAVDLEDVKLGHYYELVVTTFTGLYRYRVGDILMVTGFYNNAPQFRFVHRRNVVLSIDTDKTNEEDLLKAVTQAKVLLEPLGFLLTEYTSFADTSSIPGHYVLFWELKTQGTNDLPELDPITMEKCCSTVEESLDSIYRRCRKKDKSIGPLEIRVVTHGTFDALMDFCVSQGSSVNQYKTTRCIKSEEAFKILHSRVVGRFFSKKTPFWE"}}, "data": [{"experiment": "LC-MS assay of GH3 conjugation of IAA with Asp or Glu", "assay_type": "biochemical", "settings": "conjugation of IAA with Asp by recombinant GH3 protein; IAA-Asp product by LC-MS", "method_in_brief": "(§1)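 N-His-tagged GH3 homologs expressed in E. coli C41(DE3) and Ni-NTA purified (44 to 164 μg/mL) were incubated 3 hours at 30° C. in 20 mM Tris-HCl pH 8.0, 5 mM MgCl2, 1 mM DTT with 5 mM each of auxin, ATP and Asp or Glu. Conjugates were quantified by LC-MS against standards.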", "units": {"kcat (hrs−1) IAA-Asp": "h⁻¹"}, "values": [{"molecule": "B1", "kcat (hrs−1) IAA-Asp": 806.314}, {"molecule": "B2", "kcat (hrs−1) IAA-Asp": 679.646}, {"molecule": "B3", "kcat (hrs−1) IAA-Asp": 660.985}, {"molecule": "B4", "kcat (hrs−1) IAA-Asp": 888.111}, {"molecule": "B5", "kcat (hrs−1) IAA-Asp": 887.172}, {"molecule": "B6", "kcat (hrs−1) IAA-Asp": 941.117}, {"molecule": "B7", "kcat (hrs−1) IAA-Asp": 13.999}]}, {"experiment": "LC-MS assay of GH3 conjugation of IAA with Asp or Glu", "assay_type": "biochemical", "settings": "conjugation of IAA with Glu by recombinant GH3 protein; IAA-Glu product by LC-MS", "method_in_brief": "as §1", "units": {"kcat (hrs−1) IAA-Glu": "h⁻¹"}, "values": [{"molecule": "B1", "kcat (hrs−1) IAA-Glu": 44.225}, {"molecule": "B2", "kcat (hrs−1) IAA-Glu": 53.401}, {"molecule": "B3", "kcat (hrs−1) IAA-Glu": 93.781}, {"molecule": "B4", "kcat (hrs−1) IAA-Glu": 181.954}, {"molecule": "B5", "kcat (hrs−1) IAA-Glu": 36.015}, {"molecule": "B6", "kcat (hrs−1) IAA-Glu": 160.490}, {"molecule": "B7", "kcat (hrs−1) IAA-Glu": 568.780}]}, {"experiment": "LC-MS assay of GH3 conjugation of 2,4-D with Asp or Glu", "assay_type": "biochemical", "settings": "conjugation of 2,4-D with Asp by recombinant GH3 protein; 2,4-D-Asp product by LC-MS; 5 mM 2,4-D substrate", "method_in_brief": "as §1", "units": {"kcat (hrs−1) 2,4-D-Asp": "h⁻¹"}, "values": [{"molecule": "B1", "kcat (hrs−1) 2,4-D-Asp": 2.033}, {"molecule": "B2", "kcat (hrs−1) 2,4-D-Asp": 0.934}, {"molecule": "B3", "kcat (hrs−1) 2,4-D-Asp": 0.740}, {"molecule": "B4", "kcat (hrs−1) 2,4-D-Asp": 5.415}, {"molecule": "B5", "kcat (hrs−1) 2,4-D-Asp": 3.813}, {"molecule": "B6", "kcat (hrs−1) 2,4-D-Asp": 3.142}, {"molecule": "B7", "kcat (hrs−1) 2,4-D-Asp": 0.000}]}, {"experiment": "LC-MS assay of GH3 conjugation of 2,4-D with Asp or Glu", "assay_type": "biochemical", "settings": "conjugation of 2,4-D with Glu by recombinant GH3 protein; 2,4-D-Glu product by LC-MS; 5 mM 2,4-D substrate", "method_in_brief": "as §1", "units": {"kcat (hrs−1) 2,4-D-Glu": "h⁻¹"}, "values": [{"molecule": "B1", "kcat (hrs−1) 2,4-D-Glu": 0.845}, {"molecule": "B2", "kcat (hrs−1) 2,4-D-Glu": 0.203}, {"molecule": "B3", "kcat (hrs−1) 2,4-D-Glu": 0.536}, {"molecule": "B4", "kcat (hrs−1) 2,4-D-Glu": 2.816}, {"molecule": "B5", "kcat (hrs−1) 2,4-D-Glu": 1.854}, {"molecule": "B6", "kcat (hrs−1) 2,4-D-Glu": 1.214}, {"molecule": "B7", "kcat (hrs−1) 2,4-D-Glu": 0.559}]}]}
